Data published in patent US20210277138A1 (BLACK BELT THERAPEUTICS, published 2021).
Positions count from the first letter of the chain named.

T1: human CD38 expressed on cells (Daudi cells, human PBMC / T cells) (human, UniProt P28907 1-300)
T1 sequence: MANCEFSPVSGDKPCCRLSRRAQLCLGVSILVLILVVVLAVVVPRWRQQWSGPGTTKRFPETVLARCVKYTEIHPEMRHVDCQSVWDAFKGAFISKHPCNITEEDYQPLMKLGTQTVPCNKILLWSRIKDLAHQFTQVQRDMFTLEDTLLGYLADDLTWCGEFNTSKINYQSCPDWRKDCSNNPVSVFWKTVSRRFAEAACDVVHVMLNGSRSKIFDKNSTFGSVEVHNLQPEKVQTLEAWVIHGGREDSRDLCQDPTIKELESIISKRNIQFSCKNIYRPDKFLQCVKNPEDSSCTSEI

B1: aCD38-b-329 (antibody, human IgG1, V domains shown)
VH: QLQLQESGPGLVKPSETLSLTCTVSGGSISSSDYYWGWIRQPPGKGLEWIGSIYYSGSTYYNPSLKSRVTISVDTSKNQFSLKLSSVTAADTAVYYCARGQYSSGWYAYPFDMWGQGTMVTVSS
VL: EIVLTQSPGTLSLSPGERATLSCRASQSVRSSYLAWYQQKPGQAPRLLIYGASSRATGIPDRFSGSGSGTDFTLTISRLEPEDFAVYYCQQDGAVFTFGGGTKVEIK
B2: aCD38-b-329-m6 (antibody, IgG1, V domains shown)
VH: B1 VH
VL: B1 VL with G93E
B3: aCD38-b-329-m7 (antibody, IgG1, V domains shown)
VH: B1 VH
VL: B1 VL with G93S

Experiments:
[1] = target: T1, human CD38 expressed on cells (Daudi …); assay: cell-based or functional assay
[2] = target: T1, human CD38 expressed on cells (Daudi …); assay: cell-based or functional assay; remark: listed apart in the source
[3] = target: T1, human CD38 expressed on cells (Daudi …); assay: flow cytometry on human PBMC, gated on CD4-positive cells, fluorescent secondary antibody [lower panel (gated on CD4-positive cells]
Protocol: (§1) Binding of anti-CD38 Antibodies to CD38-expressing cells: The candidate hits are evaluated by analysing the binding to human PBMC. […] Cells were then washed and labelled with an AF488 secondary antibody. Cells were then incubated with additional surface staining antibodies: anti-CD3 PE-Cy7, anti-CD4 APC and anti-CD8 BV451. Sample acquisition was performed using 8-colour (three laser) BD FACSCanto II cytometer, running on the BD FACSDiva software (BD Biosciences). Post-analysis processing and was conducted using FCS Express (v3.0) software (DeNovo software). The relative proportions (%) of the different cell populations and Median Fluorescence Intensity (MFI) data were reported to 2 decimal places.

[4] = target: T1, human CD38 expressed on cells (Daudi …); assay: flow cytometry on human PBMC, gated on CD8-positive cells, fluorescent secondary antibody [upper panel (gated on CD8-positive cells]
Protocol: as §1

Binder	ADCC EC50 ug/ml, target Daudi cells, experiment 1 [1] [µg/mL]	ADCC EC50 ug/ml, target Daudi cells, experiment 2 [1] [µg/mL]	ADCC target lysis EC50 [2] [ng/mL]	ADCC target lysis Max. % lysis [2] [%]	EC50 (read off the curve) [3] [nM]	EC50 (read off the curve) [4] [nM]
B1	0.011	0.0062	6.2	49	~0.07	~0.07
B2			2.4	47		
B3			3.5	43		
